Experimental findings from article PMC4735030 are described below.

The target in the assay is porcine colonic mucins (porcine). Nature of the assay: SPR. On the technique in general: SPR reads the build-up and loss of mass on a sensor chip optically.

One may read the Kd as the equilibrium constant for the complex coming apart. A low value points to higher affinity. The term koff denotes the rate constant with which the complex falls apart. One may read the kon as the rate constant with which the complex forms. Regarding “recombinant BL0675 A type with a C-terminal 6 x His tag (natural protein)”, the Kd came out at 98.2 nM, the off-rate (koff) worked out at 0.00279 s⁻¹ and the on-rate (kon) worked out at 28400 M⁻¹ s⁻¹.
